# Laboratory results taken from publication PMC5148919, “Enhanced production of 2,3-butanediol by engineered Saccharomyces cerevisiae through fine-tuning of pyruvate decarboxylase and NADH oxidase activities” (Biotechnology for Biofuels, 2016).
# B1: Pdc5 (Saccharomyces cerevisiae S288C) (protein)
# chain: MSEITLGKYLFERLSQVNCNTVFGLPGDFNLSLLDKLYEVKGMRWAGNANELNAAYAADGYARIKGMSCIITTFGVGELSALNGIAGSYAEHVGVLHVVGVPSISSQAKQLLLHHTLGNGDFTVFHRMSANISETTAMITDIANAPAEIDRCIRTTYTTQRPVYLGLPANLVDLNVPAKLLETPIDLSLKPNDAEAEAEVVRTVVELIKDAKNPVILADACASRHDVKAETKKLMDLTQFPVYVTPMGKGAIDEQHPRYGGVYVGTLSRPEVKKAVESADLILSIGALLSDFNTGSFSYSYKTKNIVEFHSDHIKIRNATFPGVQMKFALQKLLDAIPEVVKDYKPVAVPARVPITKSTPANTPMKQEWMWNHLGNFLREGDIVIAETGTSAFGINQTTFPTDVYAIVQVLWGSIGFTVGALLGATMAAEELDPKKRVILFIGDGSLQLTVQEISTMIRWGLKPYIFVLNNNGYTIEKLIHGPHAEYNEIQGWDHLALLPTFGARNYETHRVATTGEWEKLTQDKDFQDNSKIRMIEVMLPVFDAPQNLVKQAQLTAATNAKQ
# notes: full-length ORF from genomic DNA, TDH3 promoter multi-copy plasmid in Pdc-deficient S. cerevisiae SOS5; no tag mentioned
# B2: Pdc6 (Saccharomyces cerevisiae S288C) (protein)
# chain: SEITLGKYLFERLKQVNVNTIFGLPGDFNLSLLDKIYEVDGLRWAGNANELNAAYAADGYARIKGLSVLVTTFGVGELSALNGIAGSYAEHVGVLHVVGVPSISAQAKQLLLHHTLGNGDFTVFHRMSANISETTSMITDIATAPSEIDRLIRTTFITQRPSYLGLPANLVDLKVPGSLLEKPIDLSLKPNDPEAEKEVIDTVLELIQNSKNPVILSDACASRHNVKKETQKLIDLTQFPAFVTPLGKGSIDEQHPRYGGVYVGTLSKQDVKQAVESADLILSVGALLSDFNTGSFSYSYKTKNVVEFHSDYVKVKNATFLGVQMKFALQNLLKVIPDVVKGYKSVPVPTKTPANKGVPASTPLKQEWLWNELSKFLQEGDVIISETGTSAFGINQTIFPKDAYGISQVLWGSIGFTTGATLGAAFAAEEIDPNKRVILFIGDGSLQLTVQEISTMIRWGLKPYLFVLNNDGYTIEKLIHGPHAEYNEIQTWDHLALLPAFGAKKYENHKIATTGEWDALTTDSEFQKNSVIRLIELKLPVFDAPESLIKQAQLTAATNAKQ
# notes: as for B1
# B3: K. marxianus Pdc1 (Kluyveromyces marxianus) (protein)
# chain: MSEITLGRYLFERLKQVEVQTIFGLPGDFNLSLLDKIYEVPGMRWAGNANELNAAYAADGYARLKGMACVITTFGVGELSALNGIAGSYAEHVGVLHVVGVPSISSQAKQLLLHHTLGNGDFTVFHRMSSNISETTAMITDINSAPSEIDRCIRTTYISQRPVYLGLPANLVDLKVPASLLETPIDLSLKPNDPEAENEVLETVLELIKDAKNPVILADACCSRHNVKAETKKLIDITQFPAFVTPMGKGSIDEQHPRFGGVYVGTLSSPEVKEAVESADLVLSVGALLSDFNTGSFSYSYKTKNIVEFHSDYIKVRNATFPGVQMKFVLQKLLTKVKDAAKGYKPVPVPHAPRDNKPVADSTPLKQEWVWTQVGKFLQEGDVVLTETGTSAFGINQTHFPNDTYGISQVLWGSIGFTGGATLGAAFAAEEIDPKKRVILFIGDGSLQLTVQEISTMIRWGLKPYLFVLNNDGYTIERLIHGETAQYNCIQSWKHLDLLPTFGAKDYEAVRVATTGEWNKLTTDKKFQENSKIRLIEVMLPVMDAPSNLVKQAQLTASINAKQE
# notes: full-length ORF from genomic DNA, TDH3 promoter multi-copy plasmid in Pdc-deficient S. cerevisiae SOS5; no tag mentioned; ORF ends NAKQE by primer
# B4: ScPdc1 (Saccharomyces cerevisiae S288C) (protein)
# chain: SEITLGKYLFERLKQVNVNTVFGLPGDFNLSLLDKIYEVEGMRWAGNANELNAAYAADGYARIKGMSCIITTFGVGELSALNGIAGSYAEHVGVLHVVGVPSISAQAKQLLLHHTLGNGDFTVFHRMSANISETTAMITDIATAPAEIDRCIRTTYVTQRPVYLGLPANLVDLNVPAKLLQTPIDMSLKPNDAESEKEVIDTILALVKDAKNPVILADACCSRHDVKAETKKLIDLTQFPAFVTPMGKGSIDEQHPRYGGVYVGTLSKPEVKEAVESADLILSVGALLSDFNTGSFSYSYKTKNIVEFHSDHMKIRNATFPGVQMKFVLQKLLTTIADAAKGYKPVAVPARTPANAAVPASTPLKQEWMWNQLGNFLQEGDVVIAETGTSAFGINQTTFPNNTYGISQVLWGSIGFTTGATLGAAFAAEEIDPKKRVILFIGDGSLQLTVQEISTMIRWGLKPYLFVLNNDGYTIEKLIHGPKAQYNEIQGWDHLSLLPTFGAKDYETHRVATTGEWDKLTQDKSFNDNSKIRMIEIMLPVFDAPQNLVEQAKLTAATNAKQ
# notes: as for B1
# What was measured:
# CtPdc1 = tested on: T1, CtPdc1; test: coupled ADH/NADH assay at […] nm, crude extract, Lineweaver-Burk; format: cell-based, Candida viswanathii (printed as Candida tropicalis); details: pH 6.5 imidazole, 30 °C, 5 mM MgCl2, 0.2 mM TPP, 0.4 mM NADH; pyruvate 1.56-100 mM
# T1 construct: gene PDC1; full-length ORF from genomic DNA, TDH3 promoter multi-copy plasmid in Pdc-deficient S. cerevisiae SOS5; no tag mentioned; ORF ends NAAQE by primer
# [1] = substrate: CC(=O)C(=O)O; test: cells, lysate or membranes; format: cell-based, Saccharomyces cerevisiae; details: pH 6.5 imidazole, 30 °C, 5 mM MgCl2, 0.2 mM TPP, 0.4 mM NADH, pyruvate 1.56-100 mM
# [2] = substrate: CC(=O)C(=O)O; test: cells, lysate or membranes; format: cell-based, Kluyveromyces marxianus; details: pH 6.5 imidazole, 30 °C, 5 mM MgCl2, 0.2 mM TPP, 0.4 mM NADH, pyruvate 1.56-100 mM
Molecule,Km [1] [mM],also measured
CC(=O)C(=O)O [pyruvate],–,Km (CtPdc1): 2.7 mM
B1,9.9,–
B2,8.2,–
B3,–,Km [2]: 7.7 mM
B4,4.7,–
